Drawing on article PMC11301059, “The origin of esterase activity of Parkinson's disease causative factor DJ-1 implied by evolutionary trace analysis of its prokaryotic homolog HchA” (The Journal of Biological Chemistry, 2024), this text covers Km, kcat and kcat/Km for five proteins.

Substrate in data set [1]: O=CC(=O)c1ccccc1
Put plainly: PGO consumption, A250, initial velocity, Michaelis-Menten fit. The class given is biochemical, Homo sapiens. The settings on record: 20 mM sodium phosphate pH 7.0, 37 °C. From the text:
PGO consumption, A250, initial velocity, Michaelis-Menten fit on DJ-1

Substrate in data set [2]: CC(=O)Oc1ccc([N+](=O)[O-])cc1
Put plainly: pNP formation, A400, initial velocity, Michaelis-Menten fit. The format is biochemical, Homo sapiens. To be noted: 50 mM sodium phosphate pH 7.0, 37 °C, 0.7 μM enzyme. From the text: pNP formation, A400, initial velocity, Michaelis-Menten fit on DJ-1

Substrate in data set [3]: O=CC(=O)c1ccccc1
Put plainly: PGO consumption, A250, initial velocity, Michaelis-Menten fit. The format is biochemical, Escherichia coli. To be noted: 20 mM sodium phosphate pH 7.0, 37 °C. From the text: PGO consumption, A250, initial velocity, Michaelis-Menten fit on HchA

Substrate in data set [4]: CC(=O)Oc1ccc([N+](=O)[O-])cc1
Put plainly: pNP formation, A400, initial velocity, Michaelis-Menten fit. The format is biochemical, Escherichia coli. To be noted: 50 mM sodium phosphate pH 7.0, 37 °C, 1 μM enzyme. From the text: pNP formation, A400, initial velocity, Michaelis-Menten fit on HchA

B1: DJ-1 (Homo sapiens) (protein)
chain: MASKRALVILAKGAEEMETVIPVDVMRRAGIKVTVAGLAGKDPVQCSRDVVICPDASLEDAKKEGPYDVVVLPGGNLGAQNLSESAAVKEILKEQENRKGLIAAICAGPTALLAHEIGFGSKVTTHPLAKDKMMNGGHYTYSENRVEKDGLILTSRGPGTSFEFALAIVEALNGKEVAAQVKAPLVLKD
notes: N-terminal His-tag (pET28a), expressed in E. coli BL21(DE3)+RIL, Ni-NTA purified, tag removal not mentioned
In general, kcat refers to the maximal rate divided by the concentration of active sites. The term kcat/Km denotes the second-order rate constant that governs catalysis at low substrate concentration. B1: in data set [1] (2 μM enzyme), the Km is recorded as 5.22 ± 0.65 × 10^-5 M, the kcat amounted to 0.12 ± 0.007 s⁻¹ and the kcat/Km is 2400 ± 229 M⁻¹ s⁻¹. Moreover, in data set [2], the Km is recorded as 4.76 ± 1.25 × 10^-3 M, the kcat worked out at 5.47 ± 0.935 s⁻¹ and the kcat/Km was 1180 ± 203 M⁻¹ s⁻¹.

B2: DJ-1 (Homo sapiens; A107H) (protein)
chain: MASKRALVILAKGAEEMETVIPVDVMRRAGIKVTVAGLAGKDPVQCSRDVVICPDASLEDAKKEGPYDVVVLPGGNLGAQNLSESAAVKEILKEQENRKGLIAAICHGPTALLAHEIGFGSKVTTHPLAKDKMMNGGHYTYSENRVEKDGLILTSRGPGTSFEFALAIVEALNGKEVAAQVKAPLVLKD
notes: as for B1
As to B2, in data set [1] (0.3 μM enzyme), the Km was 6.44 ± 1.13 × 10^-4 M, the kcat worked out at 1.65 ± 0.127 s⁻¹ and the kcat/Km was 2600 ± 303 M⁻¹ s⁻¹.

B3: HchA (Escherichia coli K-12) (protein)
chain: MTVQTSKNPQVDIAEDNAFFPSEYSLSQYTSPVSDLDGVDYPKPYRGKHKILVIAADERYLPTDNGKLFSTGNHPIETLLPLYHLHAAGFEFEVATISGLMTKFEYWAMPHKDEKVMPFFEQHKSLFRNPKKLADVVASLNADSEYAAIFVPGGHGALIGLPESQDVAAALQWAIKNDRFVISLCHGPAAFLALRHGDNPLNGYSICAFPDAADKQTPEIGYMPGHLTWYFGEELKKMGMNIINDDITGRVHKDRKLLTGDSPFAANALGKLAAQEMLAAYAG
notes: N-terminal His-tag (pET21a), expressed in E. coli BL21(DE3)+RIL, Ni-NTA purified, tag removal not mentioned; dimer
As for B3, in data set [3] (0.3 μM enzyme), the Km is given as 1.49 ± 0.40 × 10^-4 M, the kcat turned out to be 0.67 ± 0.053 s⁻¹ and the catalytic efficiency (kcat/Km) worked out at 4730 ± 1250 M⁻¹ s⁻¹.

B4: HchA (Escherichia coli K-12; D214A) (protein)
chain: MTVQTSKNPQVDIAEDNAFFPSEYSLSQYTSPVSDLDGVDYPKPYRGKHKILVIAADERYLPTDNGKLFSTGNHPIETLLPLYHLHAAGFEFEVATISGLMTKFEYWAMPHKDEKVMPFFEQHKSLFRNPKKLADVVASLNADSEYAAIFVPGGHGALIGLPESQDVAAALQWAIKNDRFVISLCHGPAAFLALRHGDNPLNGYSICAFPDAAAKQTPEIGYMPGHLTWYFGEELKKMGMNIINDDITGRVHKDRKLLTGDSPFAANALGKLAAQEMLAAYAG
notes: as for B3
Regarding B4, in data set [3] (1.8 μM enzyme), the Km is reported as 2.55 ± 0.47 × 10^-5 M, the turnover number (kcat) stood at 0.075 ± 0.005 s⁻¹ and the kcat/Km was determined as 2980 ± 355 M⁻¹ s⁻¹.

B5: HchA (Escherichia coli K-12; H186A) (protein)
chain: MTVQTSKNPQVDIAEDNAFFPSEYSLSQYTSPVSDLDGVDYPKPYRGKHKILVIAADERYLPTDNGKLFSTGNHPIETLLPLYHLHAAGFEFEVATISGLMTKFEYWAMPHKDEKVMPFFEQHKSLFRNPKKLADVVASLNADSEYAAIFVPGGHGALIGLPESQDVAAALQWAIKNDRFVISLCAGPAAFLALRHGDNPLNGYSICAFPDAADKQTPEIGYMPGHLTWYFGEELKKMGMNIINDDITGRVHKDRKLLTGDSPFAANALGKLAAQEMLAAYAG
notes: as for B3
Take B5: in data set [3] (1.8 μM enzyme), the Km is on record as 1.87 ± 0.24 × 10^-5 M, the kcat was 0.0491 ± 0.004 s⁻¹ and the kcat/Km came out at 2640 ± 202 M⁻¹ s⁻¹. Further, in data set [4], the Km is 4.76 ± 0.36 × 10^-3 M, the catalytic constant (kcat) came out at 3.11 ± 0.144 s⁻¹ and the kcat/Km stood at 655 ± 19.4 M⁻¹ s⁻¹.
